Assay results: US20050282743A1, “Molecular interactions in cells” (Arbor Vita Corporation, priority 2001, published 2005)
One block for each binder: values may come before it.

Tests used:
[1] = biological target: GST-PSD95 PDZ domains 1, 2, 3 (Homo sapiens), P78352; assay: G assay competition vs 10 uM biotin-CD95 20-mer; competitor 50 uM
[2] = biological target: GST-PSD95 PDZ domains 1, 2, 3 (Homo sapiens), P78352; assay: G assay competition vs 10 uM biotin-KV1.3 20-mer; competitor 50 uM
[3] = biological target: GST-PSD95 PDZ domains 1, 2, 3 (Homo sapiens), P78352; assay: G assay competition vs 20 uM biotin-CD46 20-mer; competitor 50 uM
[4] = biological target: GST-PSD95 PDZ domains 1, 2, 3 (Homo sapiens), P78352; assay: G assay competition vs 20 uM biotin-CLASP-2 20-mer; competitor 50 uM
[5] = biological target: T1, GST-MINT1 PDZ domain 2 (Mus musculus (Mouse)), B2RUJ5; assay: G' assay; note: key of the grades not given here
T1 chain: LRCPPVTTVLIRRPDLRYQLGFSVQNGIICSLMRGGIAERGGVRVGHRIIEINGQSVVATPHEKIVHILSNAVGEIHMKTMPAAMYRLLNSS

[6] = biological target: T2, GST-BAI-1 Associated Protein PDZ domain 3 (Homo sapiens (Human)), Q96QZ7; assay: G' assay; note: key of the grades not given here
[7] = biological target: T3, GST-KIAA1634 PDZ domain 2 (Homo sapiens (Human)), Q5TCQ9; assay: G' assay; note: key of the grades not given here
T3 chain: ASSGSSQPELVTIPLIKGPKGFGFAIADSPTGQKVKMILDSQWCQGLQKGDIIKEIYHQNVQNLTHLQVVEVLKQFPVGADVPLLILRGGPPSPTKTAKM

[8] = biological target: GST-KIAA807 [GST: P08515]; assay: G' assay; note: key of the grades not given here
[9] = biological target: T4, GST-HEMBA 1003117 PDZ domain 1 (Homo sapiens (Human)), Q96JH8; assay: G' assay; note: key of the grades not given here
T4 chain: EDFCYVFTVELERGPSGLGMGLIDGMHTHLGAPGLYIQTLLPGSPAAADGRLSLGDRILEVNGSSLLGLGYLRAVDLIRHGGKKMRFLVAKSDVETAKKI

[10] = biological target: T5, GST-PTPL1 PDZ domain 2 (Homo sapiens (Human)), Q12923; assay: G' assay; note: key of the grades not given here
T5 chain: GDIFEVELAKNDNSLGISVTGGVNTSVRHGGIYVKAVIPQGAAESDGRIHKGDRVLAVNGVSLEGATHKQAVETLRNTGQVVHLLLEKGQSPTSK

[11] = biological target: T6, GST-FLJ 10324 PDZ domain 1 [GST: P08515]; assay: G' assay; note: key of the grades not given here
T6 chain: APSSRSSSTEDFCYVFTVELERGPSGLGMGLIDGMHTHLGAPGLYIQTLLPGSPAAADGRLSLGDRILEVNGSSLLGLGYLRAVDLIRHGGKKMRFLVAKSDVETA

[12] = biological target: GST-KIAA0316 PDZ domain 1 (Homo sapiens (Human)), Q14CM0; assay: G' assay; note: key of the grades not given here
[13] = biological target: T7, GST-KIAA0807(S) PDZ domain 1 (Homo sapiens (Human)), Q6P0Q8; assay: G' assay; note: key of the grades not given here
T7 chain: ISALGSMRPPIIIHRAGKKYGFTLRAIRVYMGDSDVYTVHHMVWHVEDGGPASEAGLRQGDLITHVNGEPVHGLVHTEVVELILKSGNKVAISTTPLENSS

[14] = biological target: T8, GST-MINT1 PDZ domains 1, 2, Q02410; assay: G' assay; note: key of the grades not given here
T8 chain: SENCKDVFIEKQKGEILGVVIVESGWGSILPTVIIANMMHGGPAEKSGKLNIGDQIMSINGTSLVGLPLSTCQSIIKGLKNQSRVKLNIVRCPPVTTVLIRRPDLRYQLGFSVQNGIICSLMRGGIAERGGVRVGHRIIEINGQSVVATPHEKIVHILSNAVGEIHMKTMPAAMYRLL

[15] = biological target: GST-PIST PDZ domain 1 (Mus musculus (Mouse)), Q8BH60; assay: G' assay; note: key of the grades not given here
[16] = biological target: T9, GST-PTPL1 PDZ domain 4 (Homo sapiens (Human)), Q12923; assay: G' assay; note: key of the grades not given here
T9 chain: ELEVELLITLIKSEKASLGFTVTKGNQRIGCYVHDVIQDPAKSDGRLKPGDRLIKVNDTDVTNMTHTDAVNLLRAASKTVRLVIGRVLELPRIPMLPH

[17] = biological target: T2, GST-BAI-1 Associated Protein PDZ domain …; assay: G assay titration, PDZ 0.5 ug/ml
[18] = biological target: T5, GST-PTPL1 PDZ domain 2 (Homo sapiens …); assay: G assay titration, PDZ 0.5 ug/ml
[19] = biological target: T10, GST-Syntrophin gamma 2 PDZ domain 1 (Homo sapiens (Human)), Q9NY99; assay: G' assay; note: key of the grades not given here
T10 chain: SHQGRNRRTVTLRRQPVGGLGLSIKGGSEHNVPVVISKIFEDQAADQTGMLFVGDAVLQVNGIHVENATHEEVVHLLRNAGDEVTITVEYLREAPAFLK

[20] = biological target: T11, GST-KIAA0973 PDZ domain 1 (Homo sapiens (Human)), Q9Y2H9; assay: G' assay; note: key of the grades not given here
T11 chain: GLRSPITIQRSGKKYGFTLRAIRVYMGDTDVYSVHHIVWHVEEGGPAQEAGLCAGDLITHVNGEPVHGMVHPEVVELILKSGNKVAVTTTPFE

[21] = biological target: T12, GST-Shank 3 PDZ domain 1 (human (hypothetical, computer cloned)), Q9BYB0; assay: G' assay; note: key of the grades not given here
T12 chain: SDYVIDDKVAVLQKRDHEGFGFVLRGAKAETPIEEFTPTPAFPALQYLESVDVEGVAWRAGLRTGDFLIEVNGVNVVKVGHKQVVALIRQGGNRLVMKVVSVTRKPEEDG

[22] = biological target: T13, GST-ZO-2 PDZ domain 1 (Homo sapiens (Human)), Q9UDY2; assay: G' assay; note: key of the grades not given here
T13 chain: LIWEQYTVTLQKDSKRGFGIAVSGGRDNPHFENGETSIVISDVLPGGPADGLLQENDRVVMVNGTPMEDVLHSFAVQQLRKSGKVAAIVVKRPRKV

[23] = biological target: T14, GST-KIAA1526 PDZ domain 1 (Homo sapiens (Human)), Q9P202; assay: G' assay; note: key of the grades not given here
T14 chain: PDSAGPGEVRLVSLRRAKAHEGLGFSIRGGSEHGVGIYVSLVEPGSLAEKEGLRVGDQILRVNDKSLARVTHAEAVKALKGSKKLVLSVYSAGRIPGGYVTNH

[24] = biological target: T15, GST-Shank 1 PDZ domain 1 (Homo sapiens (Human)), Q9UPX8; assay: G' assay; note: key of the grades not given here
T15 chain: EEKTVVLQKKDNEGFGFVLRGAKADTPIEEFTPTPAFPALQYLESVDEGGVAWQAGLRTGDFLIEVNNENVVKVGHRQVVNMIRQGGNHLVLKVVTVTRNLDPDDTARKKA

[25] = biological target: T16, GST-MUPP1 PDZ domain 13 (Homo sapiens (Human)), O75970; assay: G' assay; note: key of the grades not given here
T16 chain: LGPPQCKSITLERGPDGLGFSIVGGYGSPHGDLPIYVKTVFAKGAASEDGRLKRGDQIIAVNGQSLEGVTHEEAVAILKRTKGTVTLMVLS

[26] = biological target: T17, GST-Outer Membrane PDZ domain 1 (Homo sapiens (Human)), P57105; assay: G' assay; note: key of the grades not given here
T17 chain: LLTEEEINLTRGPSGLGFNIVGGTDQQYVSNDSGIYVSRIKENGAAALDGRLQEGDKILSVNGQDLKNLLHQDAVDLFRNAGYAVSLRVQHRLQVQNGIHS

[27] = biological target: T18, GST-EZRIN Binding Protein 50 PDZ domain 1 (Homo sapiens (Human)), O14745; assay: G' assay; note: key of the grades not given here
T18 chain: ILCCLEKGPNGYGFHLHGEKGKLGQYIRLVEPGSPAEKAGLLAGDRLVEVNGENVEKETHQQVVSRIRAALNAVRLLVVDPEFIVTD

[28] = biological target: T19, GST-EZRIN Binding Protein 50 PDZ domain 2 (Homo sapiens (Human)), O14745; assay: G' assay; note: key of the grades not given here
T19 chain: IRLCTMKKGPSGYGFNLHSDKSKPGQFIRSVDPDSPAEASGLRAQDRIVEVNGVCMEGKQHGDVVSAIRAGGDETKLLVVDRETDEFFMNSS

[29] = biological target: T20, GST-INADL PDZ domain 8 (Homo sapiens (Human)), Q8NI35; assay: G' assay; note: key of the grades not given here
T20 chain: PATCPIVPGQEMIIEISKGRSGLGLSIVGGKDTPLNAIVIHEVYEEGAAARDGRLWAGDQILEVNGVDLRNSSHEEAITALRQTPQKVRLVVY

[30] = biological target: T21, GST-rat SHANK 3 PDZ domain 1 (rat), Q9JLU4; assay: G' assay; note: key of the grades not given here
T21 chain: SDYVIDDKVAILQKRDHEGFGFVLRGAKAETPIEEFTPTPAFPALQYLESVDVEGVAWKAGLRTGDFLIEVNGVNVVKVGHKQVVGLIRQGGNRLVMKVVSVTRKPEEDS

[31] = biological target: T22, GST-MUPP1 PDZ domain 10 (Homo sapiens (Human)), O75970; assay: G' assay; note: key of the grades not given here
T22 chain: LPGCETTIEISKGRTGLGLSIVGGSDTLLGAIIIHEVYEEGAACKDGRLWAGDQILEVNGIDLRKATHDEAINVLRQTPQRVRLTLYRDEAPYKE

[32] = biological target: T23, GST-PDZK1 PDZ domains 2, 3, 4, Q5T2W1; assay: G' assay; note: key of the grades not given here
T23 chain: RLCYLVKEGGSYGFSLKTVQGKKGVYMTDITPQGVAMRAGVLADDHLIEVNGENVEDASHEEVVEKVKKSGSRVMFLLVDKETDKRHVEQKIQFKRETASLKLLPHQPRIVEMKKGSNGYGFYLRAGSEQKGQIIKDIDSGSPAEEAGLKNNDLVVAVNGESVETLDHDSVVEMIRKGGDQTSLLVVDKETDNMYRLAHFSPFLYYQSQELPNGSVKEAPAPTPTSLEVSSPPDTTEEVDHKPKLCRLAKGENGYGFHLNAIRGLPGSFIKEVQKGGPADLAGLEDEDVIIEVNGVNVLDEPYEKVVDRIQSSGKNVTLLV

[33] = biological target: T24, GST-APXL-1 PDZ domain 1 (Homo sapiens (Human)), Q13796; assay: G' assay; note: key of the grades not given here
T24 chain: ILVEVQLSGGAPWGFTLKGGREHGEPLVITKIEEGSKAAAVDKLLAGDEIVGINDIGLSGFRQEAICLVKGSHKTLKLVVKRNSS

GST-PSD95 PDZ domains 1, 2, 3 (Homo sapiens), P78352, sequence (P78352 62-395): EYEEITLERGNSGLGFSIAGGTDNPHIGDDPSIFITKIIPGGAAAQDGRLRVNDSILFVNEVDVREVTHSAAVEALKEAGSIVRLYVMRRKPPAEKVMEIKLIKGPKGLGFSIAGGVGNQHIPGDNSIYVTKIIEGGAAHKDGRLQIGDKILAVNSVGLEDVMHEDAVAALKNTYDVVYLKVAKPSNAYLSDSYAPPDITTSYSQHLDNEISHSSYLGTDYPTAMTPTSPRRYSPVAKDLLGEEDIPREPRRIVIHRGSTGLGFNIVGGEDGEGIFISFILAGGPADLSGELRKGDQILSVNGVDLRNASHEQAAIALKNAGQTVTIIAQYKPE
T2 sequence (Q96QZ7 other isoform, or with tags, fused parts or gaps): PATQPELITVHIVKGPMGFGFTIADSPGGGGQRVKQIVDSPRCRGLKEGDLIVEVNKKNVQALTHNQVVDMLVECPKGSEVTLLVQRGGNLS
GST-KIAA807 [GST: P08515], sequence (P08515 whole entry, the tested form may be a part): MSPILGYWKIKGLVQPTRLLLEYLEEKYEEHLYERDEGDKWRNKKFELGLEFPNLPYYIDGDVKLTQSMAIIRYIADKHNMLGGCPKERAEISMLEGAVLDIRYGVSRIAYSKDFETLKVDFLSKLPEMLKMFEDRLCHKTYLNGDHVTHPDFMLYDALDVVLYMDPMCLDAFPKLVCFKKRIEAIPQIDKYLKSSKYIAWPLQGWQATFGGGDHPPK
GST-KIAA0316 PDZ domain 1 (Homo sapiens (Human)), Q14CM0, sequence (Q14CM0 72-159): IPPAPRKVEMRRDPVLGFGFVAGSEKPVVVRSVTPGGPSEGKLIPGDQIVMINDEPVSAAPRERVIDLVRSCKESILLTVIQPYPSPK

% binding of labelled 20-mer [1]: 75%
% binding of labelled 20-mer [2]: 87%
% binding of labelled 20-mer [3]: 100%
% binding of labelled 20-mer [4]: 92%
B1: unlabeled 8 amino acid peptide corresponding to the C-terminus of CD95 (peptide)
peptide: RNEIQSLV
modifications: not checked

Classification [5]: 1 A450 class
Classification [6]: 4 A450 class
Classification [7]: 5 A450 class
Classification [8]: 1 A450 class
Classification [9]: 1 A450 class
Classification [10]: 5 A450 class
Classification [11]: 2 A450 class
Classification [12]: 1 A450 class
Classification [13]: 1 A450 class
Classification [14]: 1 A450 class
Classification [15]: 1 A450 class
Classification [16]: 2 A450 class
Kd [17]: 2000 nM
Kd [18]: 200 nM
B3: serotonin receptor 5HT-2B (peptide)
peptide: DTLLLTENEGDKTEEQVSYV
modifications: not checked

Second part, the binder before the results:

B2: CLASP-2 8-mer (peptide)
peptide: MTSSSSVV
modifications: not checked
% binding of labelled 20-mer [1]: 80%
% binding of labelled 20-mer [2]: 82%
% binding of labelled 20-mer [3]: 90%
% binding of labelled 20-mer [4]: 85%

B4: Na+/Pi cotransporter 2 (peptide)
peptide: PPATPSPRLALPAHHNATRL
modifications: not checked
Classification [5]: 1 A450 class
Classification [19]: 1 A450 class
Classification [20]: 2 A450 class
Classification [21]: 5 A450 class
Classification [22]: 1 A450 class
Classification [23]: 1 A450 class
Classification [24]: 5 A450 class
Classification [25]: 1 A450 class
Classification [8]: 5 A450 class
Classification [26]: 1 A450 class
Classification [27]: 5 A450 class
Classification [28]: 2 A450 class
Classification [29]: 1 A450 class
Classification [30]: 4 A450 class
Classification [11]: 1 A450 class
Classification [13]: 5 A450 class
Classification [31]: 1 A450 class
Classification [32]: 1 A450 class
Classification [33]: 1 A450 class
Classification [15]: 1 A450 class
